Experimental data as given in US20130034559A1 (AstraZeneca / MedImmune, published 2013).

T1: human B7-DC on 293T cells (human, UniProt Q9BQ51 20-273)
T1 construct: whole, on cells; also called PD-L2
T1 sequence (looked up): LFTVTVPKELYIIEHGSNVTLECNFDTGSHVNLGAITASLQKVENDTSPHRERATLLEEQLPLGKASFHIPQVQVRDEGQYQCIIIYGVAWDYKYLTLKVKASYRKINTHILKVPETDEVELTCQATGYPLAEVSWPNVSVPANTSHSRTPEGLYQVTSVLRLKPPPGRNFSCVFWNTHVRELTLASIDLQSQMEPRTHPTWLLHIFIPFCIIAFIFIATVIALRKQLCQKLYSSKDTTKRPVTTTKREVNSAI


Key:
[1] = molecular target: T2, human B7-H1 expressed on cells (human, UniProt Q9NZQ7 19-290); experiment: FMAT, hybridoma supernatant, 293T cells expressing human B7-H1
T2 construct: whole, on cells; also called PD-L1; huB7-H1
Procedure: (§1) Immediately after plating, 10 μl/well of hybridoma supernatants were added and plates incubated for 1.5 hr at room temperature.

[2] = molecular target: T3, mouse B7-H1 on J558 cells (mouse, UniProt Q9EP73 19-290); experiment: FACS, 5 µg/ml antibody, J558 cells expressing mouse B7-H1
T3 construct: whole, on cells
Procedure: (§2) The ability of the purified antibodies to bind to human B7-H1, B7-DC, mouse B7H1 and cynomolgus monkey B7-H1 was determined by FACS analysis. […] Mouse J558 cells expressing mouse B7-H1 were obtained from ATCC (catalog #TIB-6). Cells were resuspended in PBS containing 2% FBS (FACS buffer) and seeded at 50000 cells/well into V-bottomed plates. Anti-B7-H1 and isotype control antibodies diluted in FACS buffer were added at a final concentration of 5 μg/ml and plates were incubated for 1 h at 4° C. […] Mouse anti-human B7-DC (PD-L2) antibody (R&D systems cat #MAB1224, detected with goat anti-mouse Fc Cy5, Jackson Immunoresearch) was used as a positive control for B7-DC expression. PE-conjugated rat anti-mouse B7-H1 antibody (eBioscience, clone M1H5, detected with goat anti-rat Fc Cy5, Jackson Immunoresearch) was used as a positive control for mouse B7-H1 expression.

[3] = molecular target: T3, mouse B7-H1 on J558 cells; experiment: FACS on J558 cells expressing mouse B7-H1
Procedure: as §2

[4] = molecular target: T1, human B7-DC on 293T cells; experiment: FACS, 5 µg/ml antibody, 293T cells transfected with human B7-DC
Procedure: as §2

[5] = molecular target: T4, cynomolgus monkey B7-H1 expressed on cells (cynomolgus monkey, UniProt G7PSE7 19-290); experiment: FMAT, hybridoma supernatant, 293T cells expressing cynomolgus monkey B7-H1
T4 construct: whole, on cells; also called cyno B7-H1; cynomologus B7-H1
Procedure: as §1

[6] = molecular target: T1, human B7-DC on 293T cells; experiment: FACS on 293T cells transfected with human B7-DC
Procedure: as §2

[7] = molecular target: T2, human B7-H1 expressed on cells; experiment: FACS competition: inhibition of biotinylated PD-1/Fc (10 ug/ml) binding to human B7-H1 on ES-2 cells
Procedure: Briefly, 50000 cells/well were plated in 50 μl of PBS into wells of a 384-well tissue culture plate (Corning Costar, catalog #3712). Next, 50 μl/well of a diluted monoclonal antibody was added at final concentration of […], 0.00016 nM and plates were incubated at 4 C for 1 hour. […] Cells were washed once and 100 μl/well of Cy5-conjugated streptavidin was added and plates were incubated at 4 C for 15 min before being washed again with PBS containing 2% FCS and being read on a FACSCalibur instrument.

[8] = molecular target: T2, human B7-H1 expressed on cells; experiment: FACS, 5 µg/ml antibody, 293T cells transfected with human B7-H1
Procedure: as §2

[9] = molecular target: T4, cynomolgus monkey B7-H1 expressed on …; experiment: FACS, 1 µg/ml antibody, anti-CD3-activated cynomolgus monkey T cells
Procedure: For activation of cynomolgus monkey T cells 96-well high binding plates were incubated with 100 μl/well of goat anti-mouse IgG Fc antibody diluted at 1 ug/ml in PBS at 4 C overnight. […] Cynomolgus monkey PBMC were isolated from peripheral blood (Bioreclamation, catalog #CYNWBCPT). Anti-CD3 mAb coated plates were washed with PBS and isolated PBMC were added in 200 ul of ICM media at ˜200000 cells/well and cultured for 72 hours. Cells were then harvested, washed in FACS buffer and mixed with diluted purified anti-B7-H1 antibodies or irrelevant human IgG2 or IgG4 antibodies at a final concentration of 1 ug/ml in 96-well V-bottom assay plate (50 ul/well). […] Cells were incubated for 1 hour at 4° C. before being washed again with FACS buffer and being read on a FACSCalibur instrument. Monkey T lymphocyte population was selected for analysis based on forward and side scatter as well as positive staining for CD3 marker and negative staining for 7-AAD.

[10] = molecular target: T2, human B7-H1 expressed on cells; experiment: cell ELISA: biotinylated PD-1/Fc (1.25 ug/ml) on CHO-huB7-H1 cells after hybridoma supernatant (1:5); 0% = 100% inhibition
Procedure: 25000 cells/well were plated in 50 μl of media into wells of a 384-well tissue culture plate (Corning Costar, catalog #3712). Next day, 50 μl/well of diluted (1:5) hybridoma supernatant was added and plates were incubated at 4 C for 1 hour on a shaker. […] Cells were washed and fixed in 100 ul of PBS containing 3.7% formaldehyde and 3% bovine serum albumin for 20 min at room temperature. Cells were washed and incubated in 100 ul of PBS containing 0.6% H2O2 and 3% bovine serum albumin for 10 min at room temperature. Cells were washed and incubated in 50 μl of horseradish peroxidase-conjugated streptavidin diluted at 1:4000 for 30 min at 4° C. Cells were washed before signal detection.

[11] = molecular target: T2, human B7-H1 expressed on cells; experiment: FACS, 1 µg/ml antibody, anti-CD3-activated human T cells
Procedure: 96-well high binding plates were incubated with 100 μl/well of anti-CD3 antibody diluted at 1 ug/ml in PBS (OKT3 clone, eBioscience, catalog #160037) at 4 C overnight. Human T cells were isolated from frozen leukopack using T cell enrichment kit (StemCell Technologies, catalog #19051). Anti-CD3 mAb coated plates were washed with PBS and purified T cells were added in 200 ul of ICM media at 360000 cells/well and cultured for 72 hours. T cells were then harvested, washed in FACS buffer and mixed with diluted purified anti-B7-H1 antibodies or irrelevant human IgG2 or IgG4 antibodies at final concentration of 1 ug/ml in 96-well V-bottom assay plate (50 ul/well). […] Cells were incubated for 30 min at 4° C. before being washed again with FACS buffer and being read on a FACSCalibur instrument. Live lymphocyte population was selected for analysis based on forward and side scatter as well as negative staining for 7-AAD.

T2 sequence (Q9NZQ7 19-290): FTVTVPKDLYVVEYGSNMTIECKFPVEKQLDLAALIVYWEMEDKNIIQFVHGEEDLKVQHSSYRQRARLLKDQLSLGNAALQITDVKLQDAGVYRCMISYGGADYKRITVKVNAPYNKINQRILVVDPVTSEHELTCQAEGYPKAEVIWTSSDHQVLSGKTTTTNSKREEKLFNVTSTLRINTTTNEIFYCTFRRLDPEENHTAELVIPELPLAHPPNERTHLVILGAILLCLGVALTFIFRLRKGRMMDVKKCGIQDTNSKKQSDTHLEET
T3 sequence (Q9EP73 19-290): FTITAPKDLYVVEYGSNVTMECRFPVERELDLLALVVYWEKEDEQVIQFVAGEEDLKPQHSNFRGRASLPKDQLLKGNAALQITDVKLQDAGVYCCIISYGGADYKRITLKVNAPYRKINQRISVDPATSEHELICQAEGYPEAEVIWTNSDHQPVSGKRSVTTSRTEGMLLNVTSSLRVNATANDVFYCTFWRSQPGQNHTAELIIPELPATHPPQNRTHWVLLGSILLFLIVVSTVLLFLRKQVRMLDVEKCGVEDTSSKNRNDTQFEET
T4 sequence (G7PSE7 entry or part of it): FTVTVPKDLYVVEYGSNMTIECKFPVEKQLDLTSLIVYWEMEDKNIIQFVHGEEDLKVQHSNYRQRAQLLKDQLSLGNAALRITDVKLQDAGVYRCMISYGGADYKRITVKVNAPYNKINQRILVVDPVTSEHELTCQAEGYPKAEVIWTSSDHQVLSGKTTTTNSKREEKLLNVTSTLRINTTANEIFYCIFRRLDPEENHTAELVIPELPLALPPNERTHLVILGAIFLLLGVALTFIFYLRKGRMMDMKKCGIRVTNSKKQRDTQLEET

Binder	Count [1]	FL1 [1]	FL1 × count [1]	geo mean [2]	binding result [3]	geo mean [4]	Count [5]	FL1 [5]	FL1 × count [5]	binding result [6]	IC50 [7]	geo mean [8]	geo mean [9]	PD1-Fc binding to CHO-huB7-H1 cells (% of max) [10]	geo mean [11]
3.15G8 (antibody, IgG4, V domains shown, also called mAb 3.15G8) VH: EVQLVESGGGLVQPGGSLRLSCAASGFTFSSYWMSWVRQAPGKGLEWVANIKQDGGEKYYVDSVKGRFTISRDNAKNSLFLQMNSLRAEDTAVYYCARVQLYSDYFDYWGQGTLVTVSS VL: DIQMTQSPSSVSASVGDRVTITCRASQGISSWLAWYQQKSGKAPKLLIYAASGLQSGVPSRFSGSGSGTDFTLTISSLQPEDLATYYCQQSHSLPPTFGQGTKVEIK	22	8810	194000	3.2	no binding (tested: 5 µg/ml)	10.1	64	8650	553000	no binding (tested: 5 µg/ml)	0.148 nM	1180	92.8	4 % of max	48
2.20A8 (antibody, IgG2, V domains shown, also called mAb 2.20A8) VH: EVQLLESGGGLVQPGGSLRLSCAASGFTFSNYAMSWVRQAPGKGLEWVSAIRGSGGSTYYADSVKGRFTISRDNSKNTLYLQMNSLRAEDTAVYYCAKDLHYDSSGYLDYWGQGTLVTVSS VL: DIQMTQSPSSVSASVGDRVTITCRASQGIRSWLAWYQQKPGKAPKLLIYAISRLQSGVPSRFSGSGSGTDFTLTISSLQPEDFATYYCQQANSFPLTFGGGTKVEIK	34	10300	350000	3.3	no binding (tested: 5 µg/ml)	9.5	65	7930	515000	no binding (tested: 5 µg/ml)	0.198 nM	463	80.7	0 % of max	41
2.14H9 (antibody, IgG2, V domains shown, also called mAb 2.14H9) VH: EVQLVESGGGLVQPGGSLRLSCAASGFTFSRYWMSWVRQAPGKGLEWVANIKQDGSEKYYVDSVKGRFTISRDNAKNSLYLQMNSLRAEDTAVYYCAREGGWFGELAFDYWGQGTLVTVSS VL: EIVLTQSPGTLSLSPGERATLSCRASQRVSSSYLAWYQQKPGQAPRLLIYDASSRATGIPDRFSGSGSGTDFTLTISRLEPEDFAVYYCQQYGSLPWTFGQGTEVEIK	–	–	–	3	no binding (tested: 5 µg/ml)	11.4	56	6780	380000	no binding (tested: 5 µg/ml)	–	–	106	–	–

Further binders by falling IC50 [7], results first:

Count [1]	FL1 [1]	FL1 × count [1]	geo mean [2]	binding result [3]	geo mean [4]	Count [5]	FL1 [5]	FL1 × count [5]	binding result [6]	IC50 [7]	geo mean [8]	geo mean [9]	PD1-Fc binding to CHO-huB7-H1 cells (% of max) [10]	geo mean [11]	Binder
21	10900	228000	3.2	no binding (tested: 5 µg/ml)	9.7	66	10300	682000	no binding (tested: 5 µg/ml)	0.14 nM	1540	94.6	5 % of max	45	3.18G1 (antibody, V domains shown, also called mAb 3.18G1) VH: EVQLLESGGDLVQPGGSLRLSCAASGFTFNSYAMSWVRQAPGKGLEWVSTISGSGGFTFSADSVKGRFTISRDNSKNTLFLQMNSLRVEDSAVYSCAKVLVGFNNGCWDYWGQGTLVTVSS VL: SYVLTQPPSVSVAPGQTARITCGGNNIGSKSVHWYQQKPGQAPVLVVYDDSDRPSGIPERFSGSNSGNTATLTISRVEAGDEADYYCQVWDSSNDHVVFGGGTKLTVL
22	7180	158000	3.2	no binding (tested: 5 µg/ml)	8.7	54	5530	298000	no binding (tested: 5 µg/ml)	0.109 nM	463	107	-5 % of max	49	2.9D10 (antibody, V domains shown, Tested as hybridoma supernatant or purified antibody; also called mAb 2.9D10) VH: EVQLVESGGGLVQPGGSLRLSCAASGFTFSSYWMSWVRQAPGKGLEWVANIKQDGGEQYYVDSVKGRFTISRDNAKNSLYLQMNSLRAEDTAVYYCARDWNYGYYDMDVWGQGTTVTVSS VL: EIVLTQSPGTLSLSPGERATLSCRASQSVSSNYLAWFQQKPGQAPRLLIFGTSSRATGIPDRFSGSGSGTDFTLTISRLEPEDFAVYYCQQYGSSIFTFGPGTKVDIK
37	6980	258000	3.2	no binding (tested: 5 µg/ml)	10.5	59	8700	513000	no binding (tested: 5 µg/ml)	0.077 nM	754	104	0 % of max	49	2.7A4 (antibody, IgG2, V domains shown, also called mAb 2.7A4) VH: EVQLVESGGGLVKPGGSLRLSCAASGFTFSTYSMNWVRQAPGKGLEWVSSISSSGDYIYYADSVKGRFTISRDNAKNSLFLQMNSLKAEDTAVYYCARDLVTSMVAFDYWGQGTLVTVSS VL: SYELTQPPSVSVSPGQAARITCSGDALPQKYVFWYQQKSGQAPVLVIYEDSKRPSGIPERFSGSSSGTMATLTISGAQVEDEADYYCYSTDRSGNHRVFGGGTRLTVL
